From the supplement of paper PMC10065799, “High-throughput profiling of sequence recognition by tyrosine kinases and SH2 domains using bacterial peptide display” (eLife, 2023)

Legend:
AncSZ = test: phosphorylation enrichment, bacterial display (enrichment ratio); higher = better substrate or ligand; peptides without Tyr show the background
EPHB1 = EPHB1 (UniProt P54762); test: as above
EPHB2 = EPHB2 (UniProt P29323); test: as above
FGFR1 = FGFR1 (UniProt P11362); test: as above
FGFR3 = FGFR3 (UniProt P22607); test: as above
Fer (mouse) = test: as above
Fes = Fes (UniProt P07332); test: as above
Fyn = Fyn (UniProt P06241); test: as above
Hck = Hck (UniProt P08631); test: as above
Jak2 = Jak2 (UniProt O60674); test: as above
MERTK = MERTK (UniProt Q12866); test: as above
c-Abl (mouse) = test: as above
c-Src = test: as above
Grb2 SH2 = Grb2 SH2 (UniProt P62993); test: SH2 binding enrichment of the phosphorylated peptide, bacterial display (enrichment ratio); higher = better substrate or ligand; peptides without Tyr show the background
SHP2-C SH2 = test: as above
c-Src SH2 = test: as above
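Wherever SH2 binding enrichment of the phosphorylated peptide, bacterial display is given: peptide library displayed on the E. coli surface as eCPX fusions, selected cells deep-sequenced, score is each peptide's frequency after selection divided by its frequency in the input.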
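Wherever phosphorylation enrichment, bacterial display is given: 11-residue human phosphosite peptides and single-mutation variants displayed on the E. coli surface, counted by deep sequencing, each peptide's frequency after selection divided by its frequency in the unselected input library; frequency after pTyr selection over input frequency; kinase dosed for 20-30% of maximal phosphorylation in three min.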

Chain of EPHB2 (P29323 whole entry, looked up): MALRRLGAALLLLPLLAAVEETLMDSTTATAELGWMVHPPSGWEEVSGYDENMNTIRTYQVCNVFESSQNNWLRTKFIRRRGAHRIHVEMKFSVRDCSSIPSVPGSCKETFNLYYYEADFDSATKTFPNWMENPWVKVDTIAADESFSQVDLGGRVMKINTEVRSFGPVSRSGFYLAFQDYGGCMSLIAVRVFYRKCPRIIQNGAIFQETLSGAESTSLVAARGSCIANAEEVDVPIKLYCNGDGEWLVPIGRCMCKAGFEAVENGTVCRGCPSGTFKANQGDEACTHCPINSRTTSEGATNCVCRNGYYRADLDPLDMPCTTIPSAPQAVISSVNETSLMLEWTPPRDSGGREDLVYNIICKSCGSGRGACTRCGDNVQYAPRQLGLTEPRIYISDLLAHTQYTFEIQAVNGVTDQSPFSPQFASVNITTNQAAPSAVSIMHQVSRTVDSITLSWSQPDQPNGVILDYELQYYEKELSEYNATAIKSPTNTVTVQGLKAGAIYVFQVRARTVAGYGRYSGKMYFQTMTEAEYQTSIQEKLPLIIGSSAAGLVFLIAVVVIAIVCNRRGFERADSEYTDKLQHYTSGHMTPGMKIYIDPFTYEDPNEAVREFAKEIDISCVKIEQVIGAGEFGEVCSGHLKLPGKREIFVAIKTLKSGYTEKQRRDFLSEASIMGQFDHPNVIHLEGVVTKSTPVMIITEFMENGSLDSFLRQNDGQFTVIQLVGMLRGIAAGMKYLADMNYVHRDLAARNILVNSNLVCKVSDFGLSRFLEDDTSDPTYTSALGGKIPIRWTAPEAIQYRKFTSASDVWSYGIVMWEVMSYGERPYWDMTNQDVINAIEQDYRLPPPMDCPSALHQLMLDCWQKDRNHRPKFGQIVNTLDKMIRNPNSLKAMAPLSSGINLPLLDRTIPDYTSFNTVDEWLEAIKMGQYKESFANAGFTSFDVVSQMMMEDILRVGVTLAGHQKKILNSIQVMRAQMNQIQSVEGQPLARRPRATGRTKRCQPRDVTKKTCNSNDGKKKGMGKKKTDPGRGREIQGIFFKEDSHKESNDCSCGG
Chain of Hck (P08631 whole entry, looked up): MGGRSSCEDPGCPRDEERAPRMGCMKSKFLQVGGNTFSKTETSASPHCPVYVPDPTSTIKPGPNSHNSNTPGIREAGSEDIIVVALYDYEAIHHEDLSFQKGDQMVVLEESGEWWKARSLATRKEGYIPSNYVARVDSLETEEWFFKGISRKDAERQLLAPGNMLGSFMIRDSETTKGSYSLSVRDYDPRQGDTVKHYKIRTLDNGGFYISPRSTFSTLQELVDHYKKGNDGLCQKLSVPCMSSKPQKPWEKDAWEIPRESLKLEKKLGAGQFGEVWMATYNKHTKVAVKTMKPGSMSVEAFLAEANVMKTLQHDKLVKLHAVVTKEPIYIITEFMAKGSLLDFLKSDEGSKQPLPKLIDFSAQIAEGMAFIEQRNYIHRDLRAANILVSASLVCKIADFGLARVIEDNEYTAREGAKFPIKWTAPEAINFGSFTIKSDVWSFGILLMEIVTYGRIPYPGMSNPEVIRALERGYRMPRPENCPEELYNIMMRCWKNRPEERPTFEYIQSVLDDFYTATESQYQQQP
Chain of MERTK (Q12866 whole entry, looked up): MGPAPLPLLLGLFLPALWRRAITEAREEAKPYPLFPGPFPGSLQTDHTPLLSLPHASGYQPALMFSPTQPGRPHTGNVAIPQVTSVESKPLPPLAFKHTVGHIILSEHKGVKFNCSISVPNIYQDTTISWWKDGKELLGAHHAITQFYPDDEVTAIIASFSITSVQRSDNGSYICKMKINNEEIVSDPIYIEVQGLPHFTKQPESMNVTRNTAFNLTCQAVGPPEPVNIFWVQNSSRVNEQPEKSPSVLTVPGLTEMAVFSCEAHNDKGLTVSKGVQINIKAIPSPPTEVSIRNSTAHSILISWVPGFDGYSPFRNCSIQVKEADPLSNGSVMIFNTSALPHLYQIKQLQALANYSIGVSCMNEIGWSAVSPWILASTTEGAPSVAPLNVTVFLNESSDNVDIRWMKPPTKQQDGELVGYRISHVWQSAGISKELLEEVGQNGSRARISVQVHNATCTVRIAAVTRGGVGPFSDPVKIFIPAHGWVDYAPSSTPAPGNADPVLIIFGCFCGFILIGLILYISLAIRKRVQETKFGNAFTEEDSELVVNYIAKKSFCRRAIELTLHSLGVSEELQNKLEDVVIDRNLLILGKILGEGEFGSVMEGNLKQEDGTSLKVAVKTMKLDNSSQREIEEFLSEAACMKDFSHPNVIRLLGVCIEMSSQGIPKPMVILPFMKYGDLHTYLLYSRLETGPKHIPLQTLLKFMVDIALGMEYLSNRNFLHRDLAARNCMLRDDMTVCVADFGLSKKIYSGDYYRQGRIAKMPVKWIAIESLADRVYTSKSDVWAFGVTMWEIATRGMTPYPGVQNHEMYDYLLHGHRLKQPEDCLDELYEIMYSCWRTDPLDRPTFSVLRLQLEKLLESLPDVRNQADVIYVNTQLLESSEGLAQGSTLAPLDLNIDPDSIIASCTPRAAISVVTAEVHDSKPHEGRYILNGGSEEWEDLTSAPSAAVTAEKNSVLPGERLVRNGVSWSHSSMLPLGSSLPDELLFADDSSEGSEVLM
Chain of EPHB1 (P54762 whole entry, looked up): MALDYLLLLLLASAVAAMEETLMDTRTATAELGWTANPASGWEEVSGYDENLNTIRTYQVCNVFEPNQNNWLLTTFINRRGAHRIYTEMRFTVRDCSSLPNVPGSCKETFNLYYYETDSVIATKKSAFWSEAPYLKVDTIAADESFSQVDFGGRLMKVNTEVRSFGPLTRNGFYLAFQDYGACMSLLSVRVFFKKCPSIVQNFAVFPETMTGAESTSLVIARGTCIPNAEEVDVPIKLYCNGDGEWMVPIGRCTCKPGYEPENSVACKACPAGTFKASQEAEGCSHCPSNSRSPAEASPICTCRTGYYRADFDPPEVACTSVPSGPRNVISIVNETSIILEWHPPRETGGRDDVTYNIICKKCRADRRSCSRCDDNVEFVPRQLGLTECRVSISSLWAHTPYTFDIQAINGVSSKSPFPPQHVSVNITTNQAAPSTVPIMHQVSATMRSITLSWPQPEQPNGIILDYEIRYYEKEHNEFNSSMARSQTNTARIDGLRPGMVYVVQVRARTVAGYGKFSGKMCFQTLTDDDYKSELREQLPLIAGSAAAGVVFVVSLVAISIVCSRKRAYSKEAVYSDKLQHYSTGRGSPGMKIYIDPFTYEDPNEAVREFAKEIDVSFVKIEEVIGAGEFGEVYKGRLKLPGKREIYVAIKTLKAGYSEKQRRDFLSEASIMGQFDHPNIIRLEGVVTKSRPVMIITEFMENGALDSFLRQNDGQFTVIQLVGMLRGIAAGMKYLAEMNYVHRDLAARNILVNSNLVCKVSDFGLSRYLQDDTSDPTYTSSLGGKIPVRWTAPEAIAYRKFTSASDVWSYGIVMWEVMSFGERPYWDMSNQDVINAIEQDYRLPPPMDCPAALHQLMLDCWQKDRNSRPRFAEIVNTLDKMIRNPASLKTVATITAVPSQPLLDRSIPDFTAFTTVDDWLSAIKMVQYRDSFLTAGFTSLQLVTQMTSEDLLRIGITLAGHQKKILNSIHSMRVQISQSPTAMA
Chain of Fyn (P06241 whole entry, looked up): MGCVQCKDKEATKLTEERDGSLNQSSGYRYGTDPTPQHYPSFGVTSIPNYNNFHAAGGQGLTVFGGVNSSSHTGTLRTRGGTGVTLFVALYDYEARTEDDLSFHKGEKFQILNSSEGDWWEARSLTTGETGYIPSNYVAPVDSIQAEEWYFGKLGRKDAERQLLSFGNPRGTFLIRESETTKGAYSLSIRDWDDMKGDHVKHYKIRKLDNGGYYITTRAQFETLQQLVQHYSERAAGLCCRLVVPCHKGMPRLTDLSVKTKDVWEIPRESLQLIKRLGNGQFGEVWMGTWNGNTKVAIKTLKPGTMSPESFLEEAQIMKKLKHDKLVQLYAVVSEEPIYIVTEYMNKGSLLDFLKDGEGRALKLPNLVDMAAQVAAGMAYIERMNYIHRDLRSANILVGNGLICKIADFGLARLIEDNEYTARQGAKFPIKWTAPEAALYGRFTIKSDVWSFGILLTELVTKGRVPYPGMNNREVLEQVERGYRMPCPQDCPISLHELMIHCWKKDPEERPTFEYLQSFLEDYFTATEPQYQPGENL
Chain of FGFR1 (P11362 whole entry, looked up): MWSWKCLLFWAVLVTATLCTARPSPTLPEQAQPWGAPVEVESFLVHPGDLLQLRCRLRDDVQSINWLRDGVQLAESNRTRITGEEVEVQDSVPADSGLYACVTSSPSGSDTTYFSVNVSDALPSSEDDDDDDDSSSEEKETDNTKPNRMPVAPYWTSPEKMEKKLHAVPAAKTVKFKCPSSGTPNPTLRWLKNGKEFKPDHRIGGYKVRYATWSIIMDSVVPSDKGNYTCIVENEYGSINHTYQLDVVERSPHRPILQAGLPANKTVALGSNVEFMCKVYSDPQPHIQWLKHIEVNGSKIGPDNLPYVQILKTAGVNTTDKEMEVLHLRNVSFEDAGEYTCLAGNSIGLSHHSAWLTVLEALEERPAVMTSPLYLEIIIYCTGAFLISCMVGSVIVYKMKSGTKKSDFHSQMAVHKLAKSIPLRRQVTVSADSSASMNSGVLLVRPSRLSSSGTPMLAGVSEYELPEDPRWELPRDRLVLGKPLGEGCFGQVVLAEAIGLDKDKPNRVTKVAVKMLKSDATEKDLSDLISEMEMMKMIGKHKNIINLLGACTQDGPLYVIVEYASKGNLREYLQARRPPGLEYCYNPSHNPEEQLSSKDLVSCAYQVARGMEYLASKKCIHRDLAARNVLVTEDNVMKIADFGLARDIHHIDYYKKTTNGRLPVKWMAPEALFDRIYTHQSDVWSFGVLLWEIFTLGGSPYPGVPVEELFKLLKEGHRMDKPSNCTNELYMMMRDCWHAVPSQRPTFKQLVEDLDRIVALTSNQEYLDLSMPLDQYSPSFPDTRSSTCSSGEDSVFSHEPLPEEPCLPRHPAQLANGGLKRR

SH2 binding enrichment (Grb2 SH2)	SH2 binding enrichment (SHP2-C SH2)	SH2 binding enrichment (c-Src SH2)	Sequence	phosphorylation enrichment (AncSZ)	phosphorylation enrichment (EPHB1)	phosphorylation enrichment (EPHB2)	phosphorylation enrichment (FGFR1)	phosphorylation enrichment (FGFR3)	phosphorylation enrichment (Fer (mouse))	phosphorylation enrichment (Fes)	phosphorylation enrichment (Fyn)	phosphorylation enrichment (Hck)	phosphorylation enrichment (Jak2)	phosphorylation enrichment (MERTK)	phosphorylation enrichment (c-Abl (mouse))	phosphorylation enrichment (c-Src)
1.2	0.638	1.26	RSYSPYDYQPC [TNS1_Y796]	1.52	1.81	2.31	1.27	1.06	0.894	0.912	3.66	1.29	0.789	3.28	0.668	3.15
0.878	1.57	0.966	RYLYYYSYLLK [PTEN_Y178_V175L]	1.93	3.51	1.94	3.1	2.91	0.676	1.7	0.58	1.65	3.29	5.64	2.23	1.76
1.09	1.39	0.857	RYVYYYSYLLK [PTEN_Y178]	1.74	2.55	1.64	4.48	3.85	1.09	1.82	1.15	1.99	2.76	5.99	1.83	2.48
0.852	0.535	0.487	SAGSSYSISGI [PAX5_Y179]	0.53	0.368	0.347	0.395	0.438	0.419	0.516	0.412	0.386	0.559	0.426	0.417	0.457
0.997	0.938	0.638	SASWTYVRWFD [PTDSS1_Y274_P269S]	1.08	0.835	0.766	0.677	0.854	0.487	1.26	0.501	0.64	1.22	0.445	0.905	0.626
0.9	0.579	0.712	SDGHEYIYVDR [PDGFRB_Y579_P584R]	1.33	0.663	0.645	2.04	1.43	0.514	0.995	1.11	1.12	1.01	0.514	0.513	1.6
0.801	0.729	0.499	SEHLIYLEFKS [RASGRP1_Y215_T214I]	1.44	1.58	1.04	1.61	1.77	0.69	1.46	6.74	5.08	1.2	0.875	6.39	5.64
0.676	1.72	0.618	SEKVVYQRFTE [NCF1_Y41_R42Q]	0.675	0.457	0.394	0.574	0.542	0.508	0.763	0.889	0.959	0.931	0.379	1.07	1.93
0.959	0.922	0.682	SENPKCPEVGD [TMEM43_Y233_Y233C]	0.971	0.492	0.49	0.487	0.595	0.467	1.08	0.441	0.487	0.807	0.461	1.24	0.471
2.09	1.58	1.78	SFCFRYRCAAW [SUMF1_Y344_R349W_YF]	0.933	0.473	0.465	0.501	0.613	0.454	0.829	0.41	0.442	0.638	0.449	0.45	0.363
0.941	0.71	0.46	SHNELYFEEAE [VANGL1_Y344_YF]	1.09	0.568	0.619	0.68	1.02	0.693	1.21	0.67	0.633	1.23	0.556	0.671	0.492
1.02	0.678	0.764	SILAVYSKDIF [PANK2_Y400_N404I_YF]	0.691	0.477	0.494	0.445	0.537	0.46	0.663	1.11	0.765	0.688	2.99	0.578	1.62
0.875	0.88	0.562	SLGSPYGQPPC [PDLIM4_Y137_R142C]	0.659	0.453	0.491	0.465	0.588	0.37	0.835	0.458	0.576	0.568	0.39	0.817	0.373
0.839	0.924	0.778	SLIDMYSEVLD [OPA1_Y268]	1.26	0.621	0.683	0.633	0.719	0.535	1.12	0.575	0.579	1.1	0.527	0.569	0.591
0.746	0.49	0.413	SLLTDDSPQLQ [OTC_Y345_Y345D]	1.14	0.928	0.548	0.491	0.764	0.444	1.29	0.407	0.481	1.22	0.538	0.923	0.453
0.872	0.509	0.452	SLNAVYPRAGS [OAS3_Y376]	0.451	0.306	0.323	0.384	0.357	0.314	0.481	0.331	0.368	0.462	0.378	0.507	0.368
0.657	0.453	0.487	SLTCTYSPALN [TP53_Y126_V122L]	1.56	0.924	0.882	0.66	1.21	0.696	1.81	0.797	0.818	1.57	0.522	1.65	0.804
0.828	0.718	0.448	SLTGAYTSGIP [POM121C_Y378]	0.443	0.299	0.393	0.494	0.408	0.306	0.533	0.376	0.357	0.44	0.349	0.52	0.326
0.79	0.705	0.526	SNKELYEKFMI	0.859	0.571	0.539	0.507	0.543	10.2	0.872	1.14	1.45	0.894	1.51	0.559	1.78

Continued, sequence first:

Sequence	SH2 binding enrichment (Grb2 SH2)	SH2 binding enrichment (SHP2-C SH2)	SH2 binding enrichment (c-Src SH2)	phosphorylation enrichment (AncSZ)	phosphorylation enrichment (EPHB1)	phosphorylation enrichment (EPHB2)	phosphorylation enrichment (FGFR1)	phosphorylation enrichment (FGFR3)	phosphorylation enrichment (Fer (mouse))	phosphorylation enrichment (Fes)	phosphorylation enrichment (Fyn)	phosphorylation enrichment (Hck)	phosphorylation enrichment (Jak2)	phosphorylation enrichment (MERTK)	phosphorylation enrichment (c-Abl (mouse))	phosphorylation enrichment (c-Src)
RSSPTYRDCLQ [LARGE2_Y682]	0.981	0.964	0.448	1.45	0.556	0.472	0.523	0.522	0.458	0.858	0.469	0.385	0.667	0.42	0.539	0.369
RTVDVYFGPQM [KIRREL3_Y332_R336Q]	0.838	0.453	0.304	1.51	1.04	0.677	0.824	0.919	0.71	1.15	1.45	1.73	1.25	0.577	1.53	1.73
RTVDVYFGPRM [KIRREL3_Y332]	0.901	0.593	0.348	1.15	0.643	1.33	0.758	1.23	0.711	1.14	1.06	1.5	0.618	0.591	0.65	0.72
RVYRDYVLKSA [HTATIP2_Y111_D108Y]	0.959	0.612	0.481	1.07	1.01	0.76	0.833	0.825	0.493	1.05	0.645	0.841	0.836	0.693	0.624	0.794
RYVVLYDAELT [ERCC4_Y581]	1.47	7.24	6.75	1.3	2.77	1.96	0.736	1.04	0.629	1.49	0.657	0.66	1.24	1.98	0.817	0.605
SARFRYLVAEK [LDHB_Y173_M175V]	0.811	0.615	0.516	0.698	0.351	0.486	0.424	0.425	0.447	0.635	0.415	0.458	0.607	0.327	0.569	0.449
SDIEEYVHRIG [DDX3X_Y525]	0.994	0.892	0.534	0.978	0.473	0.456	0.426	0.567	0.367	0.972	0.429	0.455	0.791	0.384	0.953	0.41
SDRNLYSKNLV [CFAP58_Y501]	0.823	0.811	0.423	0.626	0.268	0.38	0.325	0.363	1.03	0.516	0.411	0.555	0.491	0.748	0.467	0.435
SDVSSYLEGQV [GCG_Y110_A115V]	0.81	0.569	0.479	0.924	0.616	0.534	0.532	0.735	0.547	1.24	0.557	0.511	1.09	0.478	0.838	0.52
SEASGYQDNIA [DES_Y363]	0.907	0.567	0.52	0.778	0.52	0.485	0.441	0.674	0.551	0.94	0.384	0.485	0.783	0.515	0.616	0.427
SFIGQYSGKKE [L1CAM_Y1229]	0.721	0.622	0.525	0.735	0.452	0.413	0.417	0.519	0.372	0.714	0.461	0.486	0.532	0.382	0.609	0.374
SFVVRYNQPRV [GRIN2D_Y736_M733V_YF]	1.06	0.697	0.972	1.01	0.559	0.517	0.499	0.608	0.49	1.1	0.483	0.515	0.794	0.366	0.663	0.377
SGIFQYSIAKF [FOXL2_Y83_I84S_YF]	0.947	1.5	1.11	0.889	0.555	0.525	0.64	0.638	0.467	0.969	0.478	0.569	0.756	0.469	0.573	0.5
SLGKGYFDGGC [MC4R_Y35_S36Y_YF]	0.838	0.704	0.555	0.922	0.452	0.529	0.434	0.611	0.35	0.924	0.377	0.429	0.889	0.389	0.842	0.481
